Measured values: US20250136718A1 (MABWELL THERAPEUTICS, published 2025)

T1: cynomolgus monkey TMPRSS6 expressed on HEK293T cells, CynoTMPRSS6-(His)6
T1 chain: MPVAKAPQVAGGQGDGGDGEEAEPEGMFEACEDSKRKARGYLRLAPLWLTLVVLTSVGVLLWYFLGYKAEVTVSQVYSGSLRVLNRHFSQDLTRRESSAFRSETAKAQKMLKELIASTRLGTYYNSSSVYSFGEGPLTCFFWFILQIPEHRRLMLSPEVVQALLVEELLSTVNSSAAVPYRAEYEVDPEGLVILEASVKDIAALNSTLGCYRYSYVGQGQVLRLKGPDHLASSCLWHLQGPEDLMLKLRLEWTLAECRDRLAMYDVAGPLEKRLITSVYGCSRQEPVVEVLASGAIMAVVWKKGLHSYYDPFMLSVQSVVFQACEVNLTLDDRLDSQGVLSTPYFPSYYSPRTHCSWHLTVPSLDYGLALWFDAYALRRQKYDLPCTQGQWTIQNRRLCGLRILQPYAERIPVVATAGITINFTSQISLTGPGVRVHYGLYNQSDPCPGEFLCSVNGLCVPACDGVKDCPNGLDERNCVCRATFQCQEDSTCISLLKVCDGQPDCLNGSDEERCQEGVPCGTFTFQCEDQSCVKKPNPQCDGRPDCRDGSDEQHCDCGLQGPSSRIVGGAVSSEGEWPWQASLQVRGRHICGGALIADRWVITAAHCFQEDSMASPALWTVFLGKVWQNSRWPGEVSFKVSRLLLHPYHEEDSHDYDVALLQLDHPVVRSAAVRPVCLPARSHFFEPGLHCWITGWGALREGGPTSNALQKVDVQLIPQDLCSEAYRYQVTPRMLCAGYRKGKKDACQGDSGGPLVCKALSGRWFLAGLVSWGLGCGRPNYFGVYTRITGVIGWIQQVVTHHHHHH

T2: human TMPRSS6 (matriptase-2) expressed on HEK293T cells, huTMPRSS6-(His)6 (UniProt Q8IU80 10-811)
T2 chain: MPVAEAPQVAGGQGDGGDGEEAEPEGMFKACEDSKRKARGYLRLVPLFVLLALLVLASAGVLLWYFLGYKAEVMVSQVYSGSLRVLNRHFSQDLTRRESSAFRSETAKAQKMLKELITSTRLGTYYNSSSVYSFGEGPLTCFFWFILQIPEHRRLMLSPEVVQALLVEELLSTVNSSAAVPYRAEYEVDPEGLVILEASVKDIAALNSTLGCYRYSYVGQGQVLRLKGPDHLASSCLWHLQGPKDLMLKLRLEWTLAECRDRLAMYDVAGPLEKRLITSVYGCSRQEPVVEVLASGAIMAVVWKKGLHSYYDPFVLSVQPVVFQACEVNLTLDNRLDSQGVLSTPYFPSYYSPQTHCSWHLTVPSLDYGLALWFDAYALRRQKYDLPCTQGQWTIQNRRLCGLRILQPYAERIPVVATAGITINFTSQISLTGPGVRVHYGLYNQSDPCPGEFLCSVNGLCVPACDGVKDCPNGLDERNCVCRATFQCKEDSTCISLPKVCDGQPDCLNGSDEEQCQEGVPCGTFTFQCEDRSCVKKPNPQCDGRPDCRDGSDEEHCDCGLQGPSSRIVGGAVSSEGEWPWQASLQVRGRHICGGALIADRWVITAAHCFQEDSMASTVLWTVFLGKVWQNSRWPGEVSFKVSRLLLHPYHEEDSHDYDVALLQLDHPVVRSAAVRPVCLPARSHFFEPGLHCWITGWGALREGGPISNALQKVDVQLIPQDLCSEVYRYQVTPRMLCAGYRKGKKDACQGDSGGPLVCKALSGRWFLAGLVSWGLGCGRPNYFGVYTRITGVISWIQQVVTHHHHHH

B1: MWTx-003 anti-TMPRSS6 monoclonal antibody (antibody, mouse IgG2b, kappa, V domains shown)
VH: EVQLQQSGAELVKPGASVKLSCTASGFNIEDYYIHWVKERTEQGLEWIGRIDPEDGETTYAPQFQGKATIIPDTSSNTAYMQLSSLTSEDAAVYYCARSIYLDPMDYWGQGTSVTVSS
VL: DIVMTQSHKFMSTSVGDRVSITCKASQDVTTAVAWYQQKPGQSPKILIYWATTRHTGVPDRFTGSISGTTYILTISSVQAEDLALYYCQQHYSTPYTFGGGTKLEIKR
notes: Mouse monoclonal antibody from hybridoma (ATCC PTA-126761); The recombinant version r4K12B has the same HC and LC; also called r4K12B; recombinant MWTx-003
B2: MWTx-002 anti-TMPRSS6 monoclonal antibody (antibody, mouse IgG2b, kappa, V domains shown)
VH: EVQLQQSGAELVKPGASVKLSCTASGFNIKDYYIHWVKERTEQGLEWFGRIDPEDGESEYAPKFQGKATLTADTSSNTAYLQLSSLTSEDTAVYYCTRGDSMMVTYFDYWGQGTTLTVSS
VL: DIVMTQSHKFMSTSVGDRVSITCKASQDVSTAVAWYQQKPGQSPKLLIYWAFTRHTGVPDRFTSTGSGTDYALTISSVQAEDLALYYCQQHYRSPWTFGGGTKLEIKR
notes: Mouse monoclonal antibody from hybridoma (ATCC PTA-126760)
B3: MWTx-001 anti-TMPRSS6 monoclonal antibody (antibody, mouse IgG2a, kappa, V domains shown)
VH: QVQLQQPGAELAKPGASVKMSCKASGYTFTSYWITWVKQRPGQDLEWIGNIYPGSGSTYYNEKFKSKATLTVDTSSRTAYMQLSSLTSADSAVYYCAPYDSDYAMDYWGQGTSVTVSS
VL: DIKMTQSPSSMYASLGERVTITCKASQDINNYLSWFQQKPGKSPKTLIYRANRLVDGVPSRVSGSGSGQDYSLTISSLEYEDVGIYFCLQYDEFPLTFGAGTKLELKR
notes: Mouse monoclonal antibody from hybridoma (ATCC PTA-126759)

Experiments:
[1] = target: T1, cynomolgus monkey TMPRSS6 expressed on …; assay: cell surface ELISA
[2] = target: T2, human TMPRSS6 (matriptase-2) expressed …; assay: cell surface ELISA
[3] = target: T2, human TMPRSS6 (matriptase-2) expressed …; assay: FACS

Binder | EC50 [1] [µg/mL] | EC50 [2] [µg/mL] | EC50 [3] [µg/mL]
B1 | 0.09 | 0.05 | 0.2
B2 | 0.06 | 0.04 | 0.2
B3 | 0.1 | 0.2 | 1
